Here are results for 23 variants from FireProtDB (doi:10.1006/jmbi.2001.5050).

The chains are these.
B1: Cold shock protein CspB, P41016 (parent)
chain: MQRGKVKWFNNEKGYGFIEVEGGSDVFVHFTAIQGEGFKTLEEGQEVSFEIVQGNRGPQAANVVKL

In this data set the parent is B1. To be noted: Bacillus caldolyticus, pH 7, CD, sodium cacodylate-HCl 100 mM, reversible: yes, structure 1C9O, whole UniProt chain shown.

As for L66A, where the note is “70 °C, Thermal, NaCl 2 M”, the “ddG of mutation (higher = less stable)” value came to 0.07 kcal/mol and the unfolding free energy is 2.13 kcal/mol.

As to L66E, under “25 °C, GdnHCl”, the “ddG of mutation (higher = less stable)” value came out at 0.84 kcal/mol, the denaturant m value is 1.74 kcal/mol/M, the “denaturant midpoint (higher = more stable)” value (“denaturant midpoint” for short) worked out at 2.21 M and the unfolding free energy turned out to be 0.36 kcal/mol. In addition, where the note is “70 °C, Thermal, NaCl 2 M”, the “ddG of mutation (higher = less stable)” value amounted to 1.27 kcal/mol and the unfolding free energy was 0.93 kcal/mol. Moreover, where the note is “Thermal”, the Tm is 68.9 °C; the “change of melting temperature, mutant - wild type (higher = more stable)” value (from here on “change of melting temperature, mutant”) was -8 °C; the “unfolding enthalpy (van 't Hoff)” value is 50.2 kcal/mol.

With N11S, where the note is “25 °C, GdnHCl”, the “ddG of mutation (higher = less stable)” value is 0 kcal/mol, the denaturant m value came out at 1.74 kcal/mol/M, the “denaturant midpoint” value was 2.69 M and the unfolding free energy turned out to be 1.2 kcal/mol. In addition, where the note is “70 °C, Thermal, NaCl 2 M”, the “ddG of mutation (higher = less stable)” value is -0.22 kcal/mol and the unfolding free energy is 2.41 kcal/mol. For the same variant, for the setting “70 °C, Thermal”, the “ddG of mutation (higher = less stable)” value is -0.33 kcal/mol and the unfolding free energy worked out at 1.41 kcal/mol. Further, for the setting “Thermal”, the midpoint of thermal melting (Tm) turned out to be 79.2 °C; the “change of melting temperature, mutant” value is 2.3 °C; the “unfolding enthalpy (van 't Hoff)” value stood at 58.8 kcal/mol.

In the case of Q53E, for the setting “25 °C, GdnHCl”, the “ddG of mutation (higher = less stable)” value is -0.02 kcal/mol, the denaturant m value came out at 1.82 kcal/mol/M, the “denaturant midpoint” value was determined as 2.68 M and the unfolding free energy was 1.22 kcal/mol. Besides, where the note is “70 °C, Thermal, NaCl 2 M”, the “ddG of mutation (higher = less stable)” value is 0 kcal/mol and the unfolding free energy was 2.2 kcal/mol. For the same variant, under “70 °C, Thermal”, the “ddG of mutation (higher = less stable)” value turned out to be 0.1 kcal/mol and the unfolding free energy came out at 0.98 kcal/mol. Moreover, for the setting “Thermal”, the midpoint of thermal melting (Tm) turned out to be 76.1 °C; the “change of melting temperature, mutant” value is -0.8 °C; the “unfolding enthalpy (van 't Hoff)” value stood at 58.8 kcal/mol.

Consider V64T, for which, where the note is “25 °C, GdnHCl”, the “ddG of mutation (higher = less stable)” value was found to be 0.31 kcal/mol, the denaturant m value came out at 1.79 kcal/mol/M, the “denaturant midpoint” value was determined as 2.5 M and the unfolding free energy stood at 0.88 kcal/mol. Further, for the setting “70 °C, Thermal, NaCl 2 M”, the “ddG of mutation (higher = less stable)” value was 0.19 kcal/mol and the unfolding free energy came out at 2.01 kcal/mol. Besides, for the setting “70 °C, Thermal”, the “ddG of mutation (higher = less stable)” value amounted to 0.26 kcal/mol and the unfolding free energy came out at 0.81 kcal/mol. For the same variant, under “Thermal”, the midpoint of thermal melting (Tm) is 75.1 °C; the “change of melting temperature, mutant” value was -1.8 °C; the “unfolding enthalpy (van 't Hoff)” value amounted to 58.3 kcal/mol.

With G23Q S24D, where the note is “25 °C, GdnHCl”, the “ddG of mutation (higher = less stable)” value was -0.07 kcal/mol, the denaturant m value came to 1.67 kcal/mol/M, the “denaturant midpoint” value was found to be 2.75 M and the unfolding free energy is 1.27 kcal/mol. For the same variant, for the setting “70 °C, Thermal, NaCl 2 M”, the “ddG of mutation (higher = less stable)” value came out at 0.1 kcal/mol and the unfolding free energy is 2.1 kcal/mol. Where the note is “70 °C, Thermal”, the “ddG of mutation (higher = less stable)” value was found to be 0.12 kcal/mol and the unfolding free energy is 0.96 kcal/mol. For the setting “Thermal”, the melting temperature (Tm) amounted to 75.9 °C; the “change of melting temperature, mutant” value is -1 °C; the “unfolding enthalpy (van 't Hoff)” value was 59.5 kcal/mol.

As to Q2L, where the note is “25 °C, GdnHCl”, the “ddG of mutation (higher = less stable)” value was -0.41 kcal/mol, the denaturant m value was determined as 1.7 kcal/mol/M, the “denaturant midpoint” value turned out to be 2.95 M and the unfolding free energy was found to be 1.6 kcal/mol. Where the note is “70 °C, Thermal, NaCl 2 M”, the “ddG of mutation (higher = less stable)” value is -0.29 kcal/mol and the unfolding free energy amounted to 2.49 kcal/mol. Also, where the note is “70 °C, Thermal”, the “ddG of mutation (higher = less stable)” value is -0.55 kcal/mol and the unfolding free energy turned out to be 1.63 kcal/mol. Under “Thermal”, the Tm is 80.9 °C; the “change of melting temperature, mutant” value came out at 4 °C; the “unfolding enthalpy (van 't Hoff)” value worked out at 57.8 kcal/mol.

With R3E L66E, under “Thermal”, the Tm stood at 44.6 °C; the “change of melting temperature, mutant” value was -32.3 °C; the “unfolding enthalpy (van 't Hoff)” value was 36.8 kcal/mol.

On to R3E E21A, for which, where the note is “70 °C, Thermal, NaCl 2 M”, the “ddG of mutation (higher = less stable)” value amounted to 1.1 kcal/mol and the unfolding free energy turned out to be 1.1 kcal/mol. In addition, under “Thermal”, the melting temperature (Tm) stood at 60 °C; the “change of melting temperature, mutant” value is -16.9 °C; the “unfolding enthalpy (van 't Hoff)” value came out at 49.2 kcal/mol.

For the variant T31S, under “70 °C, Thermal, NaCl 2 M”, the “ddG of mutation (higher = less stable)” value was -0.19 kcal/mol and the unfolding free energy was found to be 2.39 kcal/mol. For the setting “70 °C, Thermal”, the “ddG of mutation (higher = less stable)” value is -0.17 kcal/mol and the unfolding free energy amounted to 1.24 kcal/mol. Under “Thermal”, the Tm is 77.8 °C; the “change of melting temperature, mutant” value amounted to 0.9 °C; the “unfolding enthalpy (van 't Hoff)” value stood at 59.8 kcal/mol.

Regarding E46A, where the note is “25 °C, GdnHCl”, the “ddG of mutation (higher = less stable)” value was -0.1 kcal/mol, the “denaturant midpoint” value was determined as 2.77 M and the unfolding free energy is 1.29 kcal/mol. Besides, for the setting “70 °C, Thermal, NaCl 2 M”, the “ddG of mutation (higher = less stable)” value was 0.12 kcal/mol and the unfolding free energy is 2.08 kcal/mol. Also, where the note is “70 °C, Thermal”, the “ddG of mutation (higher = less stable)” value is 0.22 kcal/mol and the unfolding free energy came out at 0.86 kcal/mol. Where the note is “Thermal”, the Tm was 75.4 °C; the “change of melting temperature, mutant” value is -1.5 °C; the “unfolding enthalpy (van 't Hoff)” value is 57.6 kcal/mol.

For R3E E46A, under “25 °C, GdnHCl”, the “ddG of mutation (higher = less stable)” value turned out to be 0.43 kcal/mol, the denaturant m value is 1.63 kcal/mol/M, the “denaturant midpoint” value is 2.47 M and the unfolding free energy was 0.76 kcal/mol. Where the note is “70 °C, Thermal, NaCl 2 M”, the “ddG of mutation (higher = less stable)” value was found to be 0.96 kcal/mol and the unfolding free energy was found to be 1.24 kcal/mol. Moreover, under “Thermal”, the Tm was determined as 64.6 °C; the “change of melting temperature, mutant” value was -12.3 °C; the “unfolding enthalpy (van 't Hoff)” value turned out to be 52.8 kcal/mol.

As for S24D, where the note is “25 °C, GdnHCl”, the “ddG of mutation (higher = less stable)” value is -0.1 kcal/mol, the denaturant m value was determined as 1.65 kcal/mol/M, the “denaturant midpoint” value amounted to 2.79 M and the unfolding free energy is 1.29 kcal/mol. Further, under “70 °C, Thermal, NaCl 2 M”, the “ddG of mutation (higher = less stable)” value is -0.19 kcal/mol and the unfolding free energy came to 2.39 kcal/mol. Also, where the note is “70 °C, Thermal”, the “ddG of mutation (higher = less stable)” value was -0.22 kcal/mol and the unfolding free energy worked out at 1.29 kcal/mol. In addition, for the setting “Thermal”, the Tm turned out to be 77.8 °C; the “change of melting temperature, mutant” value was determined as 0.9 °C; the “unfolding enthalpy (van 't Hoff)” value stood at 61.7 kcal/mol.

In the case of R3A, under “70 °C, Thermal, NaCl 2 M”, the “ddG of mutation (higher = less stable)” value is 1.05 kcal/mol and the unfolding free energy was 1.15 kcal/mol. Also, for the setting “Thermal”, the Tm is 64.9 °C; the “change of melting temperature, mutant” value was -12 °C; the “unfolding enthalpy (van 't Hoff)” value is 51.4 kcal/mol.

For R3K, under “70 °C, Thermal, NaCl 2 M”, the “ddG of mutation (higher = less stable)” value came to 0.14 kcal/mol and the unfolding free energy stood at 2.06 kcal/mol. In addition, under “70 °C, Thermal”, the “ddG of mutation (higher = less stable)” value came out at 0.19 kcal/mol and the unfolding free energy worked out at 0.88 kcal/mol. For the setting “Thermal”, the melting temperature (Tm) stood at 76.1 °C; the “change of melting temperature, mutant” value is -0.8 °C; the “unfolding enthalpy (van 't Hoff)” value worked out at 53.5 kcal/mol.

R3E: where the note is “25 °C, GdnHCl”, the “ddG of mutation (higher = less stable)” value was 0.84 kcal/mol, the denaturant m value turned out to be 1.6 kcal/mol/M, the “denaturant midpoint” value turned out to be 2.23 M and the unfolding free energy was 0.36 kcal/mol. Also, for the setting “70 °C, Thermal, NaCl 2 M”, the “ddG of mutation (higher = less stable)” value was 1 kcal/mol and the unfolding free energy turned out to be 1.2 kcal/mol.

For the variant R3L, under “70 °C, Thermal, NaCl 2 M”, the “ddG of mutation (higher = less stable)” value was 0.22 kcal/mol and the unfolding free energy turned out to be 1.98 kcal/mol. Also, for the setting “70 °C, Thermal”, the “ddG of mutation (higher = less stable)” value stood at 0.93 kcal/mol and the unfolding free energy was 0.14 kcal/mol. Under “Thermal”, the Tm is 70.9 °C; the “change of melting temperature, mutant” value is -6 °C; the “unfolding enthalpy (van 't Hoff)” value came to 55.7 kcal/mol.

On to R3E E46A L66E, for which, for the setting “Thermal”, the Tm was determined as 50.3 °C; the “change of melting temperature, mutant” value was -26.6 °C; the “unfolding enthalpy (van 't Hoff)” value was found to be 40.4 kcal/mol.

Turning to Y15F, under “25 °C, GdnHCl”, the “ddG of mutation (higher = less stable)” value is 0.1 kcal/mol, the denaturant m value amounted to 1.6 kcal/mol/M, the “denaturant midpoint” value was 2.69 M and the unfolding free energy was 1.1 kcal/mol. Besides, where the note is “70 °C, Thermal, NaCl 2 M”, the “ddG of mutation (higher = less stable)” value was -0.07 kcal/mol and the unfolding free energy stood at 2.27 kcal/mol. Besides, under “70 °C, Thermal”, the “ddG of mutation (higher = less stable)” value came out at 0.05 kcal/mol and the unfolding free energy amounted to 1.03 kcal/mol. Under “Thermal”, the midpoint of thermal melting (Tm) was 76.7 °C; the “change of melting temperature, mutant” value is -0.2 °C; the “unfolding enthalpy (van 't Hoff)” value was found to be 56.6 kcal/mol.

Consider E46A L66A, for which, for the setting “70 °C, Thermal, NaCl 2 M”, the “ddG of mutation (higher = less stable)” value amounted to 0.22 kcal/mol and the unfolding free energy was 1.98 kcal/mol. Where the note is “70 °C, Thermal”, the “ddG of mutation (higher = less stable)” value is 0.29 kcal/mol and the unfolding free energy stood at 0.79 kcal/mol. For the setting “Thermal”, the melting temperature (Tm) is 75 °C; the “change of melting temperature, mutant” value is -1.9 °C; the “unfolding enthalpy (van 't Hoff)” value was 56.9 kcal/mol.

Regarding E46A L66E, for the setting “25 °C, GdnHCl”, the “ddG of mutation (higher = less stable)” value amounted to 0.84 kcal/mol, the denaturant m value turned out to be 1.84 kcal/mol/M, the “denaturant midpoint” value is 2.2 M and the unfolding free energy was 0.36 kcal/mol. Where the note is “70 °C, Thermal, NaCl 2 M”, the “ddG of mutation (higher = less stable)” value was 1.39 kcal/mol and the unfolding free energy was 0.81 kcal/mol. Moreover, where the note is “Thermal”, the midpoint of thermal melting (Tm) came to 68 °C; the “change of melting temperature, mutant” value was -8.9 °C; the “unfolding enthalpy (van 't Hoff)” value was 51.9 kcal/mol.

Turning to G23Q, for the setting “25 °C, GdnHCl”, the “ddG of mutation (higher = less stable)” value was determined as 0 kcal/mol, the denaturant m value was 1.89 kcal/mol/M, the “denaturant midpoint” value was 2.62 M and the unfolding free energy turned out to be 1.2 kcal/mol. For the setting “70 °C, Thermal, NaCl 2 M”, the “ddG of mutation (higher = less stable)” value came out at 0.31 kcal/mol and the unfolding free energy was determined as 1.89 kcal/mol. Besides, for the setting “70 °C, Thermal”, the “ddG of mutation (higher = less stable)” value worked out at 0.29 kcal/mol and the unfolding free energy amounted to 0.79 kcal/mol. In addition, for the setting “Thermal”, the Tm worked out at 74.7 °C; the “change of melting temperature, mutant” value was -2.2 °C; the “unfolding enthalpy (van 't Hoff)” value was 59.5 kcal/mol.

In the case of E21A, under “70 °C, Thermal, NaCl 2 M”, the “ddG of mutation (higher = less stable)” value stood at 0.29 kcal/mol and the unfolding free energy was 1.91 kcal/mol. Further, under “70 °C, Thermal”, the “ddG of mutation (higher = less stable)” value came out at 0.29 kcal/mol and the unfolding free energy worked out at 0.79 kcal/mol. Also, under “Thermal”, the Tm stood at 75 °C; the “change of melting temperature, mutant” value was -1.9 °C; the “unfolding enthalpy (van 't Hoff)” value turned out to be 57.8 kcal/mol.
